The record followed here is patent US20250281595A1.

The assay has as its target purified B/Washington/02/2019 HA full ectodomain (wild type) fused with TEV cleavage motif, trimeris (influenza B virus B/Washington/02/2019 (B/Victoria)) (UniProt P22092). Put plainly: BLI (Octet Red), […], Fab CR9114 at 20 ug/ml; […].

As to fAb CR9114, the OCTET CR9114 30° C. response was determined as 0.48 nm and the OCTET Fab CR9114 response was 0.38 nm.
